Patent publication US20250002581A1 (VERSITECH, published 2025)

Experiments:
Δ42PD1 [1] = target: T1, Δ42PD1 (human); experiment: flow cytometry on 293T-Δ42PD1 cells, antibody 10 ng/ml; average ± deviation
T1 construct: whole, on cells

Δ42PD1 [2] = target: T1, Δ42PD1; experiment: flow cytometry on 293T-Δ42PD1 cells, antibody 10 ng/ml, second anti-human Fc antibody
From the text: Human IgG1 isotype was used as a negative control.
To exploit the therapeutic activities of CH101 variants, we made various modifications in the constant regions of the chimeric version or humanized version of CH101, thus resulting a serial of CH101 humanized antibodies, including CH101-huIgG1(N297A), CH101-huIgG1(L/S), CH101-huIgG4, huCH101-IgG1, huCH101-IgG4, CH101-huIgG1 (chimeric CH101). The original CH101 (parental, fully murine) was included as the positive control for these humanized versions. […] All humanized antibodies could recognize Δ42PD1 expressed on the cell surface but with different specificity (FIGS. 3A-3I). The detailed statistical analysis elucidated the activity of versions of humanized antibodies in interacting with Δ42PD1 at different specificity and sensitivity (Table 1). […] Due to the limited expression of chimeric versions of CH101 with Fc engineering, including CH101-huIgG1(N297A), CH101-huIgG1(L/S) and CH101-huIgG4, the amount of these antibody was insufficient for fluorescence labelling.

PD1 = target: T2, PD1 (human, UniProt Q15116 25-288); experiment: flow cytometry on 293T cells transfected with a PCDH plasmid expressing PD-1
T2 construct: whole, on cells; also called CD279
T2 sequence (Q15116 25-288): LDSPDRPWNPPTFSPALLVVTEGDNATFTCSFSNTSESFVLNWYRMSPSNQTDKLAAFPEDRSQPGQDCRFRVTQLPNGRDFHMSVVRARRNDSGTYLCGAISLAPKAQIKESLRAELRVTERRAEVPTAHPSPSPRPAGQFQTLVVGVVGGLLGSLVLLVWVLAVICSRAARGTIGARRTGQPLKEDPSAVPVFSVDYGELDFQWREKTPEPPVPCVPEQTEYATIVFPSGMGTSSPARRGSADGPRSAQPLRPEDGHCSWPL
Procedure: Untransfected cells are included as controls. Two days after the transfection, the specificity of anti-Δ42PD1 antibody CH34 and anti-PD1 antibody EH12.2H7 is measured by analysis on PD-1 and Δ42PD1 expression.

PD-1-GFP = target: T3, PD-1-GFP (UniProt Q15116 25-288); experiment: flow cytometry on RPMI8866 B cells transfected with PD-1-GFP
T3 construct: whole, on cells; Expressed from a PCDH plasmid in RPMI8866 B cells by electroporation; also called PD-1 expressed on human B cells; not shown: GFP
T3 sequence (Q15116 25-288): as above
Procedure: To test the specificity of anti-Δ42PD1 antibody CH34 as compared with the anti-PD1 antibody (EH12.2H7), RPMI8866 B cells are transfected with a plasmid PCDH expressing Δ42PD-1-GFP, PD-1-GFP or GFP along by Neon electroporation system. Untransfected RPMI8866 B cells are included as controls. Two days after the transfection, the transfection efficiency is determined by flow cytometry analysis on GFP (upper panel). The specificity of anti-Δ42PD1 antibody CH34 and anti-PD1 antibody EH12.2H7 is measured by analysis on PD-1 and Δ42PD1 expression (lower panel).

293T-Δ42PD1 (%) (Δ42PD1 [1]) | 293T-Δ42PD1 (%) (Δ42PD1 [2]) | Binder | further results
45.5 |  | hufrCH101-IgG1 (antibody, 97.0% humanized CH101 (641/661) by CDR grafting, human IgG1; also called huCH101-IgG1; huCH101) heavy: not shown light: DVVMTQSPLSLPVTLGQPASISCTSSQSLLDRDGETFMNWFQQRPGQSPRRLIYLVSKLDFGVPDRFSGSGSGTDFTLKISRVEAEDVGVYYCWQGTHFPLTFGGGTKVEIKRTVAAPSVFIFPPSDEQLKSGTASVVCLLNNFYPREAKVQWKVDNALQSGNSQESVTEQDSKDSTYSLSSTLTLSKADYEKHKVYACEVTHQGLSSPVTKSFNRGEC | 
 | 68.3 | CH101-huIgG1(N297A) (antibody, Detected with a second anti-human Fc antibody) heavy: not shown light: DVVMTQTPLNLSVTFGQPVSISCTSSQSLLDRDGETFMNWLFQRPGQSPKRLIYLVSKLDFGVPDRFTGSGSGTDFTLKISRVEAEDLGIYYCWQGTHFPLTFGGGTKLEIKRTVAAPSVFIFPPSDEQLKSGTASVVCLLNNFYPREAKVQWKVDNALQSGNSQESVTEQDSKDSTYSLSSTLTLSKADYEKHKVYACEVTHQGLSSPVTKSFNRGEC | 
70.1 |  | CH101-huIgG1 (antibody, also called chimeric CH101; CH101-IgG1) heavy: not shown light: DVVMTQTPLNLSVTFGQPVSISCTSSQSLLDRDGETFMNWLFQRPGQSPKRLIYLVSKLDFGVPDRFTGSGSGTDFTLKISRVEAEDLGIYYCWQGTHFPLTFGGGTKLEIKRTVAAPSVFIFPPSDEQLKSGTASVVCLLNNFYPREAKVQWKVDNALQSGNSQESVTEQDSKDSTYSLSSTLTLSKADYEKHKVYACEVTHQGLSSPVTKSFNRGEC | 
 | 65.7 | CH101-huIgG1(L/S) (antibody, Detected with a second anti-human Fc antibody; not shown: human IgG1 constant region with a modification printed only as '(L/S)') heavy: EVQLEESGPDLVKPSQSLSLTCTVTGYSITSGFAWHWLRQFPGNRLEWMGYIHYSGSTNYNPSLKSRISITRDTSKNQFFLQLNSVTTEDTATFYCARSDFWGQGTFVTVSS light: DVVMTQTPLNLSVTFGQPVSISCTSSQSLLDRDGETFMNWLFQRPGQSPKRLIYLVSKLDFGVPDRFTGSGSGTDFTLKISRVEAEDLGIYYCWQGTHFPLTFGGGTKLEIKRTVAAPSVFIFPPSDEQLKSGTASVVCLLNNFYPREAKVQWKVDNALQSGNSQESVTEQDSKDSTYSLSSTLTLSKADYEKHKVYACEVTHQGLSSPVTKSFNRGEC | 
 | 62.8 | CH101-huIgG4 (antibody, Chimeric CH101 on human IgG4; Detected with a second anti-human Fc antibody; also called CH101-IgG4) heavy: not shown light: DVVMTQTPLNLSVTFGQPVSISCTSSQSLLDRDGETFMNWLFQRPGQSPKRLIYLVSKLDFGVPDRFTGSGSGTDFTLKISRVEAEDLGIYYCWQGTHFPLTFGGGTKLEIKRTVAAPSVFIFPPSDEQLKSGTASVVCLLNNFYPREAKVQWKVDNALQSGNSQESVTEQDSKDSTYSLSSTLTLSKADYEKHKVYACEVTHQGLSSPVTKSFNRGEC | 
59.2 |  | murine CH101 (antibody, V domains shown, Hybridoma-derived, fully murine monoclonal antibody; a mouse IgG1 control was used beside it in vivo; also called parental murine CH101; original CH101 (parental, fully murine)) VH: EVQLEESGPDLVKPSQSLSLTCTVTGYSITSGFAWHWLRQFPGNRLEWMGYIHYSGSTNYNPSLKSRISITRDTSKNQFFLQLNSVTTEDTATFYCARSDFWGQGTFVTVSS VL: DVVMTQTPLNLSVTFGQPVSISCTSSQSLLDRDGETFMNWLFQRPGQSPKRLIYLVSKLDFGVPDRFTGSGSGTDFTLKISRVEAEDLGIYYCWQGTHFPLTFGGGTKLEIK | 
 |  | anti-Δ42PD1 antibody CH34 (antibody, mouse IgG2b, kappa, V domains shown, Murine monoclonal antibody (msIgG2b isotype control used beside it); both are entered as this one molecule; also called murine CH34; mouse CH34 mAb) VH: EVKLVESGGGLVQPGGSRKLSCAASGFTFSDYGMAWVRQAPGKGPEWVAFISSLAYTIYYADTVTGRFTISRENAKNTLYLEMSSLRSEDTAMYYCARGGAGFAYWGQGTLVTVSA VL: DIQMTQSSSYLSVSLGGRVTITCKASDHINNWLAWYQQKPGNAPRLLISGATSLETGVPSRFSGSGSGKDYTLSITSLQTEDVATYYCQQYWSTPWTFGGGTKLEIKR | binding result (PD1): no binding; binding result (PD-1-GFP): no binding
